Source: publication PMC7015811

Legend:
[1] = biological target: chCALHM1 hCALHM2 chimera (chicken | human) (UniProt Q9HA72); test: cryo-EM structure
chicken CALHM1 (chicken) = test: cryo-EM structure

Row | stoichiometry N [1] | stoichiometry N (chicken CALHM1 (chicken)) | Substance
1 | 11 |  | chCALHM1 hCALHM2 chimera (from UniProt Q9HA72 205-323)
2 |  | 8 | chicken CALHM1 (natural protein)
